From patent US8383581B2, “Short-chain peptides as parathyroid hormone (PTH) receptor agonist” (Cadila Healthcare Limited, priority 2009, dated 2013)
Where no end group is shown, it is not given here. [ ]: non-standard residue; d: D form. The star is where a group is joined. Bip(2'-Et-4'-OMe) = CCc1cc(OC)ccc1-c1ccc(C[C@H](N)C(=O)O)cc1; Arg(NO2) = N=C(NCCC[C@H](N)C(=O)O)N[N+](=O)[O-]; αMePhe(2,6-F2) = C[C@](N)(Cc1c(F)cccc1F)C(=O)O; αMePhe(2-F) = C[C@](N)(Cc1ccccc1F)C(=O)O; hhPhe = N[C@@H](CCCc1ccccc1)C(=O)O; hArg = N=C(N)NCCCC[C@H](N)C(=O)O; hCit = NC(=O)NCCCC[C@H](N)C(=O)O; αMeF = C[C@](N)(Cc1ccccc1)C(=O)O; Cit = NC(=O)NCCC[C@H](N)C(=O)O; NMeM = CN[C@@H](CCSC)C(=O)O; Decanoyl = CCCCCCCCCC(=O)*; Ac6c = NC1(C(=O)O)CCCCC1; Nle = CCCC[C@H](N)C(=O)O; Orn = NCCC[C@H](N)C(=O)O; Ac5c = NC1(C(=O)O)CCCC1; Ac3c = NC1(C(=O)O)CC1; Aib = CC(C)(N)C(=O)O

T1: rat PTH-1R (rat PTHR endogenously expressed on UMR-106 rat osteosarcoma cells) (rat, UniProt P25961 27-591)
T1 sequence (looked up): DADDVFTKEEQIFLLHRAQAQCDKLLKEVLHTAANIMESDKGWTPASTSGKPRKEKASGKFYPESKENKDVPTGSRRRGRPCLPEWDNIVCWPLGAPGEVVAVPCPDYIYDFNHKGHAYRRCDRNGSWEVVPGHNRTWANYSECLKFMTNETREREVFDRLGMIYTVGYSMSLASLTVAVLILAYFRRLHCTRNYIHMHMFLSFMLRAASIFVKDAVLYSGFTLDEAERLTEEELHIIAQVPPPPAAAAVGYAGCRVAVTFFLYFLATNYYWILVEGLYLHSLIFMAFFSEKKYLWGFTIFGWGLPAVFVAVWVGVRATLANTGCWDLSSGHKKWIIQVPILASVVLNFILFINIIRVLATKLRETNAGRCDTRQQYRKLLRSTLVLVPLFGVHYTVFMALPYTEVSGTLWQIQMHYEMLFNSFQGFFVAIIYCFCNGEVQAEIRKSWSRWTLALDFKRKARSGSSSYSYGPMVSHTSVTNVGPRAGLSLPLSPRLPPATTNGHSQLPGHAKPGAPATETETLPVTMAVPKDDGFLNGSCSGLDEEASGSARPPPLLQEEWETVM

B1: Seq. ID. 820 (peptide)
peptide: [Aib]V[Aib]EIQ[αMePhe(2,6-F2)][Nle]HQ[hArg][Aib][Cit][Bip(2'-Et-4'-OMe)][hhPhe]
B2: Seq. ID. 712 (peptide)
peptide: [Ac3c]V[Aib]EIQ[αMePhe(2-F)][Nle]HQ[hArg]A[Arg(NO2)][αMePhe(2,6-F2)][hhPhe]
B3: Seq. ID. 678 (peptide)
peptide: [Ac3c]V[Aib]EIQL[NMeM]HQ[hArg]AK(Decanoyl)[Bip(2'-Et-4'-OMe)]
B4: Seq. ID. 813 (peptide)
peptide: [Ac5c]V[Aib]EIQ[αMePhe(2,6-F2)][Nle]HQ[hArg]A[Cit][Bip(2'-Et-4'-OMe)][hhPhe]
B5: Seq. ID. 751 (peptide)
peptide: [Ac5c]V[Aib]EIQL[Nle]HQ[Orn]A[Aib][Bip(2'-Et-4'-OMe)][hhPhe]
B6: Seq. ID. 470 (peptide)
peptide: [Aib]V[Aib]EIQ[αMePhe(2,6-F2)][Nle]HQ[hCit][Aib][Arg(NO2)][αMePhe(2,6-F2)]
B7: Seq. ID. 30 (peptide)
peptide: [Aib]V[Ac5c]EIQ[αMePhe(2-F)][Nle]HQ[hArg]AK[αMeF]
B8: Seq. ID. 479 (peptide)
peptide: [Ac5c]V[Aib]EIQ[αMePhe(2,6-F2)][Nle]HQ[αMePhe(2,6-F2)]A[Cit][αMePhe(2-F)]
B9: Seq. ID. 694 (peptide)
peptide: [Ac3c]V[Aib]EIQ[αMePhe(2,6-F2)][Nle]HQ[hArg]A[Arg(NO2)][Bip(2'-Et-4'-OMe)][hhPhe]
B10: Seq. ID. 521 (peptide)
peptide: [Aib]V[Aib]EIQ[αMePhe(2-F)][Nle]HQ[αMePhe(2,6-F2)]A[Arg(NO2)][αMePhe(2-F)]
B11: Seq. ID. 486 (peptide)
peptide: [Aib]V[Aib]EIQ[αMePhe(2,6-F2)][Nle]HQ[αMePhe(2,6-F2)][Aib][Cit][αMePhe(2,6-F2)]
B12: Seq. ID. 540 (peptide)
peptide: [Ac5c]V[Aib]EIQ[αMePhe(2-F)][Nle]HQ[Aib][Aib][Cit][αMePhe(2-F)]
B13: Seq. ID. 781 (peptide)
peptide: [Ac5c]V[Aib]EIQL[Nle]HQ[hCit]A[Cit][Bip(2'-Et-4'-OMe)][hhPhe]
B14: Seq. ID. 23 (peptide)
peptide: [Aib]V[Ac6c]EIQL[Nle]HQ[hArg][Aib]K[αMeF]
B15: PTH (1-34) (peptide)
peptide: SVSEIQLMHNLGKHLNSMERVEWLRKKLQDVHNF
B16: Seq. ID. 733 (peptide)
peptide: [Ac5c]V[Aib]EIQL[Nle]HQ[hArg]A[Cit][Bip(2'-Et-4'-OMe)][hhPhe]
B17: Seq. ID. 647 (peptide)
peptide: [Aib]V[Aib]EIQL[Nle]HQ[hArg]AK[Bip(2'-Et-4'-OMe)]
B18: Seq. ID. 841 (peptide)
peptide: [Ac5c]V[Aib]EIQ[αMePhe(2,6-F2)][Nle]HQ[Orn][Aib][αMePhe(2,6-F2)][Bip(2'-Et-4'-OMe)][hhPhe]
B19: Seq. ID. 609 (peptide)
peptide: [Ac3c]V[Ac3c]EIQLMHQ[hArg]AK[Bip(2'-Et-4'-OMe)][hhPhe]
B20: Seq. ID. 553 (peptide)
peptide: [Aib]V[Aib]EIQ[αMePhe(2-F)][Nle]HQ[Aib]A[Aib][αMePhe(2-F)]
B21: Seq. ID. 860 (peptide)
peptide: [Aib]V[Aib]EIQ[αMePhe(2,6-F2)][Nle]HQ[hCit]A[Cit][Bip(2'-Et-4'-OMe)][hhPhe]
B22: Seq. ID. 501 (peptide)
peptide: [Aib]V[Aib]EIQ[αMePhe(2,6-F2)][Nle]HQ[αMePhe(2,6-F2)]A[Aib][αMePhe(2,6-F2)]
B23: Seq. ID. 514 (peptide)
peptide: [Aib]V[Aib]EIQ[αMePhe(2-F)][Nle]HQ[αMePhe(2,6-F2)][Aib][αMePhe(2,6-F2)][αMePhe(2,6-F2)]
B24: Seq. ID. 598 (peptide)
peptide: [Aib]V[Aib]EIQ[αMePhe(2,6-F2)][Nle]HQ[Aib][Aib][Arg(NO2)][αMePhe(2,6-F2)]
B25: Seq. ID. 637 (peptide)
peptide: [Ac5c]V[Ac3c]EIQL[Nle]HQ[hArg]AK(Decanoyl)[Bip(2'-Et-4'-OMe)][hhPhe]
B26: Seq. ID. 799 (peptide)
peptide: [Ac5c]V[Aib]EIQL[Nle]HQ[αMePhe(2,6-F2)]A[Aib][Bip(2'-Et-4'-OMe)][hhPhe]
B27: Seq. ID. 20 (peptide)
peptide: [Ac5c]V[Aib]EIQLMHQ[hArg][Aib]K[αMeF]

These binders were tested against T1, rat PTH-1R (rat PTHR endogenously …) (assay: cell-based or functional assay).

Row | cAMP released with respect to control, 1 nM peptide, UMR-106 cells | cAMP released with respect to control, 10 nM peptide, UMR-106 cells | cAMP released with respect to control, 100 nM peptide, UMR-106 cells | Binder
1 | 14 percent of control | 48 percent of control | 66 percent of control | B1
2 | 15 percent of control | 54 percent of control | 69 percent of control | B2
3 | 48 percent of control | 102 percent of control | 112 percent of control | B3
4 | 82 percent of control | 109 percent of control | 110 percent of control | B4
5 | 34 percent of control | 88 percent of control | 116 percent of control | B5
6 | 36 percent of control | 88 percent of control | 116 percent of control | B6
7 | 19 percent of control | 51 percent of control | 80 percent of control | B7
8 | 48 percent of control | 99 percent of control | 112 percent of control | B8
9 | 19 percent of control | 64 percent of control | 80 percent of control | B9
10 | 21 percent of control | 51 percent of control | 69 percent of control | B10
11 | 34 percent of control | 82 percent of control | 104 percent of control | B11
12 | 16 percent of control | 57 percent of control | 75 percent of control | B12
13 | 16 percent of control | 57 percent of control | 75 percent of control | B13
14 | 12 percent of control | 41 percent of control | 69 percent of control | B14
15 | 41 percent of control | 97 percent of control | 100 percent of control | B15
16 | 36 percent of control | 98 percent of control | 110 percent of control | B16
17 | 56 percent of control | 101 percent of control | 126 percent of control | B17
18 | 32 percent of control | 74 percent of control | 100 percent of control | B18
19 | 39 percent of control | 101 percent of control | 120 percent of control | B19
20 | 38 percent of control | 98 percent of control | 116 percent of control | B20
21 | 22 percent of control | 50 percent of control | 70 percent of control | B21
22 | 28 percent of control | 71 percent of control | 87 percent of control | B22
23 | 19 percent of control | 64 percent of control | 80 percent of control | B23
24 | 38 percent of control | 79 percent of control | 119 percent of control | B24
25 | 36 percent of control | 98 percent of control | 110 percent of control | B25
26 | 38 percent of control | 99 percent of control | 106 percent of control | B26
27 | 79 percent of control | 111 percent of control | 121 percent of control | B27
